*1 amine or outer side, *2 acyl side, *3 side chain or, on linkers, in order; H or OH if unused. [ ]: non-standard residue; d: D form. TyrEtNAc = L-tyrosine O-ethyl acetamide, (S)-3-(4-(2-acetamidoethoxy)phenyl)-2-aminopropanoic acid, CC(=O)NCCOc1ccc(C[C@H](N[*:1])C(=O)[*:2])cc1; hSOMe = (S)-2-amino-4-methoxybutanoic acid, COCC[C@H](N[*:1])C(=O)[*:2]; Trp(4-Cl)(βS-Me) = C[C@@H](c1c[nH]c2cccc(Cl)c12)[C@H](N)C(=O)O; Pro(trans-4-NH2) = O=C([C@@H]1C[C@@H](N[*:3])CN1[*:1])[*:2]; Trp(βS-Me,4-F) = C[C@@H](c1c[nH]c2cccc(F)c12)[C@H](N)C(=O)O; Bip(4'-COOH) = N[C@@H](Cc1ccc(-c2ccc(C(=O)O)cc2)cc1)C(=O)O; SerOMe = O-methyl-L-serine, COC[C@H](N[*:1])C(=O)[*:2]; Phe(4-COOH) = N[C@@H](Cc1ccc(C(=O)O)cc1)C(=O)O; h3Pal(5-CN) = N#Cc1cncc(CC[C@H](N)C(=O)O)c1; 1Nal = N[C@@H](Cc1cccc2ccccc12)C(=O)O; hTyr = N[C@@H](CCc1ccc(O)cc1)C(=O)O; hPhe = N[C@@H](CCc1ccccc1)C(=O)O; 4Pal = N[C@@H](Cc1ccncc1)C(=O)O; dDab = NCC[C@@H](N)C(=O)O; dNMeA = CN[C@H](C)C(=O)O; Dab = NCC[C@H](N)C(=O)O; Nva = CCC[C@H](N)C(=O)O
B1: SEQ ID NO: 147 (Example No. 147) (peptide)
peptide: cyclo([TyrEtNAc]W[Phe(4-COOH)]G[Pro(trans-4-NH2)][Trp(4-Cl)(βS-Me)]D[dNMeA]G[Bip(4'-COOH)]W[hSOMe][dA][hTyr])
SMILES: COCC[C@@H]1NC(=O)[C@H](Cc2c[nH]c3ccccc23)NC(=O)[C@H](Cc2ccc(-c3ccc(C(=O)O)cc3)cc2)NC(=O)CNC(=O)[C@@H](C)N(C)C(=O)[C@H](CC(=O)O)NC(=O)[C@H]([C@@H](C)c2c[nH]c3cccc(Cl)c23)NC(=O)[C@@H]2C[C@@H](N)CN2C(=O)CNC(=O)[C@H](Cc2ccc(C(=O)O)cc2)NC(=O)[C@H](Cc2c[nH]c3ccccc23)NC(=O)[C@H](Cc2ccc(OCCNC(C)=O)cc2)NC(=O)[C@H](CCc2ccc(O)cc2)NC(=O)[C@@H](C)NC1=O
B2: SEQ ID NO: 148 (Example No. 148) (peptide)
peptide: cyclo([TyrEtNAc]W[Phe(4-COOH)]G[Pro(trans-4-NH2)][Trp(4-Cl)(βS-Me)]D[dNMeA]G[Bip(4'-COOH)]WL[dA][hTyr])
SMILES: CC(=O)NCCOc1ccc(C[C@@H]2NC(=O)[C@H](CCc3ccc(O)cc3)NC(=O)[C@@H](C)NC(=O)[C@H](CC(C)C)NC(=O)[C@H](Cc3c[nH]c4ccccc34)NC(=O)[C@H](Cc3ccc(-c4ccc(C(=O)O)cc4)cc3)NC(=O)CNC(=O)[C@@H](C)N(C)C(=O)[C@H](CC(=O)O)NC(=O)[C@H]([C@@H](C)c3c[nH]c4cccc(Cl)c34)NC(=O)[C@@H]3C[C@@H](N)CN3C(=O)CNC(=O)[C@H](Cc3ccc(C(=O)O)cc3)NC(=O)[C@H](Cc3c[nH]c4ccccc34)NC2=O)cc1
B3: SEQ ID NO: 149 (Example No. 149) (peptide)
peptide: cyclo([TyrEtNAc]W[Phe(4-COOH)]G[Pro(trans-4-NH2)][Trp(4-Cl)(βS-Me)]D[dNMeA]G[Bip(4'-COOH)]WL[dDab][hTyr])
SMILES: CC(=O)NCCOc1ccc(C[C@@H]2NC(=O)[C@H](CCc3ccc(O)cc3)NC(=O)[C@@H](CCN)NC(=O)[C@H](CC(C)C)NC(=O)[C@H](Cc3c[nH]c4ccccc34)NC(=O)[C@H](Cc3ccc(-c4ccc(C(=O)O)cc4)cc3)NC(=O)CNC(=O)[C@@H](C)N(C)C(=O)[C@H](CC(=O)O)NC(=O)[C@H]([C@@H](C)c3c[nH]c4cccc(Cl)c34)NC(=O)[C@@H]3C[C@@H](N)CN3C(=O)CNC(=O)[C@H](Cc3ccc(C(=O)O)cc3)NC(=O)[C@H](Cc3c[nH]c4ccccc34)NC2=O)cc1
B4: SEQ ID NO: 150 (Example No. 150) (peptide)
peptide: cyclo([TyrEtNAc]W[Phe(4-COOH)]G[Pro(trans-4-NH2)][Trp(4-Cl)(βS-Me)]D[dNMeA]G[Bip(4'-COOH)]WS[dA][hPhe])
SMILES: CC(=O)NCCOc1ccc(C[C@@H]2NC(=O)[C@H](CCc3ccccc3)NC(=O)[C@@H](C)NC(=O)[C@H](CO)NC(=O)[C@H](Cc3c[nH]c4ccccc34)NC(=O)[C@H](Cc3ccc(-c4ccc(C(=O)O)cc4)cc3)NC(=O)CNC(=O)[C@@H](C)N(C)C(=O)[C@H](CC(=O)O)NC(=O)[C@H]([C@@H](C)c3c[nH]c4cccc(Cl)c34)NC(=O)[C@@H]3C[C@@H](N)CN3C(=O)CNC(=O)[C@H](Cc3ccc(C(=O)O)cc3)NC(=O)[C@H](Cc3c[nH]c4ccccc34)NC2=O)cc1
B5: SEQ ID NO: 151 (Example No. 151) (peptide)
peptide: cyclo([TyrEtNAc]W[Phe(4-COOH)]G[Pro(trans-4-NH2)][Trp(4-Cl)(βS-Me)]D[dNMeA]G[Bip(4'-COOH)]WS[dA][hTyr])
SMILES: CC(=O)NCCOc1ccc(C[C@@H]2NC(=O)[C@H](CCc3ccc(O)cc3)NC(=O)[C@@H](C)NC(=O)[C@H](CO)NC(=O)[C@H](Cc3c[nH]c4ccccc34)NC(=O)[C@H](Cc3ccc(-c4ccc(C(=O)O)cc4)cc3)NC(=O)CNC(=O)[C@@H](C)N(C)C(=O)[C@H](CC(=O)O)NC(=O)[C@H]([C@@H](C)c3c[nH]c4cccc(Cl)c34)NC(=O)[C@@H]3C[C@@H](N)CN3C(=O)CNC(=O)[C@H](Cc3ccc(C(=O)O)cc3)NC(=O)[C@H](Cc3c[nH]c4ccccc34)NC2=O)cc1
B6: SEQ ID NO: 152 (Example No. 152) (peptide)
peptide: cyclo([TyrEtNAc]W[Phe(4-COOH)]G[Pro(trans-4-NH2)][Trp(4-Cl)(βS-Me)]D[dNMeA]G[Bip(4'-COOH)]W[SerOMe][dA][hPhe])
SMILES: COC[C@@H]1NC(=O)[C@H](Cc2c[nH]c3ccccc23)NC(=O)[C@H](Cc2ccc(-c3ccc(C(=O)O)cc3)cc2)NC(=O)CNC(=O)[C@@H](C)N(C)C(=O)[C@H](CC(=O)O)NC(=O)[C@H]([C@@H](C)c2c[nH]c3cccc(Cl)c23)NC(=O)[C@@H]2C[C@@H](N)CN2C(=O)CNC(=O)[C@H](Cc2ccc(C(=O)O)cc2)NC(=O)[C@H](Cc2c[nH]c3ccccc23)NC(=O)[C@H](Cc2ccc(OCCNC(C)=O)cc2)NC(=O)[C@H](CCc2ccccc2)NC(=O)[C@@H](C)NC1=O
B7: SEQ ID NO: 153 (Example No. 153) (peptide)
peptide: cyclo([TyrEtNAc]W[Phe(4-COOH)]G[Pro(trans-4-NH2)][Trp(4-Cl)(βS-Me)]D[dNMeA]G[Bip(4'-COOH)]W[SerOMe][dA][hTyr])
SMILES: COC[C@@H]1NC(=O)[C@H](Cc2c[nH]c3ccccc23)NC(=O)[C@H](Cc2ccc(-c3ccc(C(=O)O)cc3)cc2)NC(=O)CNC(=O)[C@@H](C)N(C)C(=O)[C@H](CC(=O)O)NC(=O)[C@H]([C@@H](C)c2c[nH]c3cccc(Cl)c23)NC(=O)[C@@H]2C[C@@H](N)CN2C(=O)CNC(=O)[C@H](Cc2ccc(C(=O)O)cc2)NC(=O)[C@H](Cc2c[nH]c3ccccc23)NC(=O)[C@H](Cc2ccc(OCCNC(C)=O)cc2)NC(=O)[C@H](CCc2ccc(O)cc2)NC(=O)[C@@H](C)NC1=O
B8: SEQ ID NO: 154 (Example No. 154) (peptide)
peptide: cyclo([TyrEtNAc]W[Phe(4-COOH)]G[Pro(trans-4-NH2)][Trp(βS-Me,4-F)]D[dNMeA]G[Bip(4'-COOH)][1Nal][Dab][dA][hTyr])
SMILES: CC(=O)NCCOc1ccc(C[C@@H]2NC(=O)[C@H](CCc3ccc(O)cc3)NC(=O)[C@@H](C)NC(=O)[C@H](CCN)NC(=O)[C@H](Cc3cccc4ccccc34)NC(=O)[C@H](Cc3ccc(-c4ccc(C(=O)O)cc4)cc3)NC(=O)CNC(=O)[C@@H](C)N(C)C(=O)[C@H](CC(=O)O)NC(=O)[C@H]([C@@H](C)c3c[nH]c4cccc(F)c34)NC(=O)[C@@H]3C[C@@H](N)CN3C(=O)CNC(=O)[C@H](Cc3ccc(C(=O)O)cc3)NC(=O)[C@H](Cc3c[nH]c4ccccc34)NC2=O)cc1
B9: SEQ ID NO: 155 (Example No. 155) (peptide)
peptide: cyclo([TyrEtNAc]W[Phe(4-COOH)]G[Pro(trans-4-NH2)][Trp(βS-Me,4-F)]D[dNMeA]G[Bip(4'-COOH)][1Nal]S[dA][hTyr])
SMILES: CC(=O)NCCOc1ccc(C[C@@H]2NC(=O)[C@H](CCc3ccc(O)cc3)NC(=O)[C@@H](C)NC(=O)[C@H](CO)NC(=O)[C@H](Cc3cccc4ccccc34)NC(=O)[C@H](Cc3ccc(-c4ccc(C(=O)O)cc4)cc3)NC(=O)CNC(=O)[C@@H](C)N(C)C(=O)[C@H](CC(=O)O)NC(=O)[C@H]([C@@H](C)c3c[nH]c4cccc(F)c34)NC(=O)[C@@H]3C[C@@H](N)CN3C(=O)CNC(=O)[C@H](Cc3ccc(C(=O)O)cc3)NC(=O)[C@H](Cc3c[nH]c4ccccc34)NC2=O)cc1
B10: SEQ ID NO: 156 (Example No. 156) (peptide)
peptide: cyclo([TyrEtNAc]W[Phe(4-COOH)]G[Pro(trans-4-NH2)][Trp(βS-Me,4-F)]D[dNMeA]G[Bip(4'-COOH)][4Pal]L[dA][hTyr])
SMILES: CC(=O)NCCOc1ccc(C[C@@H]2NC(=O)[C@H](CCc3ccc(O)cc3)NC(=O)[C@@H](C)NC(=O)[C@H](CC(C)C)NC(=O)[C@H](Cc3ccncc3)NC(=O)[C@H](Cc3ccc(-c4ccc(C(=O)O)cc4)cc3)NC(=O)CNC(=O)[C@@H](C)N(C)C(=O)[C@H](CC(=O)O)NC(=O)[C@H]([C@@H](C)c3c[nH]c4cccc(F)c34)NC(=O)[C@@H]3C[C@@H](N)CN3C(=O)CNC(=O)[C@H](Cc3ccc(C(=O)O)cc3)NC(=O)[C@H](Cc3c[nH]c4ccccc34)NC2=O)cc1
B11: SEQ ID NO: 157 (Example No. 157) (peptide)
peptide: cyclo([TyrEtNAc]W[Phe(4-COOH)]G[Pro(trans-4-NH2)][Trp(βS-Me,4-F)]D[dNMeA]G[Bip(4'-COOH)][4Pal][Nva][dA][hTyr])
SMILES: CCC[C@@H]1NC(=O)[C@H](Cc2ccncc2)NC(=O)[C@H](Cc2ccc(-c3ccc(C(=O)O)cc3)cc2)NC(=O)CNC(=O)[C@@H](C)N(C)C(=O)[C@H](CC(=O)O)NC(=O)[C@H]([C@@H](C)c2c[nH]c3cccc(F)c23)NC(=O)[C@@H]2C[C@@H](N)CN2C(=O)CNC(=O)[C@H](Cc2ccc(C(=O)O)cc2)NC(=O)[C@H](Cc2c[nH]c3ccccc23)NC(=O)[C@H](Cc2ccc(OCCNC(C)=O)cc2)NC(=O)[C@H](CCc2ccc(O)cc2)NC(=O)[C@@H](C)NC1=O
B12: SEQ ID NO: 158 (Example No. 158) (peptide)
peptide: cyclo([TyrEtNAc]W[Phe(4-COOH)]G[Pro(trans-4-NH2)][Trp(βS-Me,4-F)]D[dNMeA]G[Bip(4'-COOH)]KL[dA][h3Pal(5-CN)])
SMILES: CC(=O)NCCOc1ccc(C[C@@H]2NC(=O)[C@H](CCc3cncc(C#N)c3)NC(=O)[C@@H](C)NC(=O)[C@H](CC(C)C)NC(=O)[C@H](CCCCN)NC(=O)[C@H](Cc3ccc(-c4ccc(C(=O)O)cc4)cc3)NC(=O)CNC(=O)[C@@H](C)N(C)C(=O)[C@H](CC(=O)O)NC(=O)[C@H]([C@@H](C)c3c[nH]c4cccc(F)c34)NC(=O)[C@@H]3C[C@@H](N)CN3C(=O)CNC(=O)[C@H](Cc3ccc(C(=O)O)cc3)NC(=O)[C@H](Cc3c[nH]c4ccccc34)NC2=O)cc1

Target: Recombinant human IL-1β (BioLegend 579404) (human, UniProt P01584 117-269)
Experiment: cell-based or functional assay

Binder | MRC5 IC50
B1 | 0.0926 nM
B2 | 0.0483 nM
B3 | 0.81 nM
B4 | 0.0633 nM
B5 | 0.0759 nM
B6 | 0.06 nM
B7 | 0.088 nM
B8 | 0.196 nM
B9 | 0.22 nM
B10 | 0.948 nM
B11 | 0.403 nM
B12 | 0.0257 nM
